Test results published in US20250325556A1, “COMPOSITIONS FOR LOCAL BONE FORMATION” (OssiFi Therapeutics LLC, priority 2021, published 2025).

B1: sclerostin: ectopic sclerostin protein added to cells; inhibits mineralization in MC3T3 osteoblast cells (protein, UniProt Q9BQB4 24-213, looked up)
Sclerostin: QGWQAFKNDATEIIPELGEYPEPPPELENNKTMNRAENGGRPPHHPFETKDVSEYSCRELHFTRYVTDGPCRSAKPVTELVCSGQCGPARLLPNAIGRGKWWRPSGPDFRCIPDRYRAQRVQLLCPGGEAPRARKVRLVASCKCKRLTRFHNQSELKDFGTEAARPQKGRKPRPRARSAKANQAELENAY

Tested on: MC3T3-E1 (mouse calvarial) osteoblast cells
Assay: Mineralization assay: rescue of the inhibition of mineralization by sclerostin (ARS mineralization)
Format: cell-based
Settings: for ARS mineralization relative to wildtype mineralization: additive alone, no O20221-1, compared with cells with no additives
From the text: Mineralization (crystalline calcium phosphate formation) represents an in vitro model of bone formation. Using an assay in which the amount of mineralization is quantified by measuring total calcium after solubilization of deposited crystalline calcium phosphate, sclerostin was previously shown to inhibit mineralization in MC3T3-E1 (mouse calvarial) osteoblast cells. Li et al., J Bone Miner Res 24:578-588 (2008). Following the protocol described in Li et al., Compositions prepared in accordance with Example 1 or mixtures of the described composition components were assayed for their ability to rescue the inhibition of mineralization by sclerostin in MC3T3 osteoblast cells. This assay was used in the examples listed below.

Molecule | ARS mineralization, restoration of normal (wildtype) mineral (in presence of sclerostin, compared with wildtype mineralization (cells with no additives)) | ARS mineralization relative to wildtype mineralization | ARS mineralization relative to wildtype mineralization (listed as Sclerostin)
COc1ccc2c3ccnc(C(F)(F)F)c3n(CCN3CCOCC3)c2n1 [O20221-1, 4-(2-(2-methoxy-8-(trifluoromethyl)-9H-pyrrolo[2,3-b:5,4-c′]dipyridin-9-yl)ethyl)morpholine] | restores normal mineral | – | –
B1 | – | inhibits normal mineralization | inhibits wildtype mineralization
